Results on eight molecules are retold here after US20230103563A1 (Sanofi, published 2023).

Assay [1] addresses T1, human IL4 (IL004, Millipore) (human, UniProt P05112 25-153).
T1 construct: Bought protein, used as analyte in SPR; also called interleukin IL4
T1 sequence (looked up): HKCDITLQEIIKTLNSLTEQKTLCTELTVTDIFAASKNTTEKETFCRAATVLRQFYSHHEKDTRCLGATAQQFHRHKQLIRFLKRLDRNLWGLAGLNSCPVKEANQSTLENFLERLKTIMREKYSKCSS
Kind of assay: SPR (Biacore 3000), construct captured, IL4 as analyte; summary table. The method, then: (§1) Binding of antigens to the antibody constructs was measured using surface plasmon resonance (SPR) on a BIAcore 3000 instrument (GE Healthcare) with HBS-EP buffer (GE Healthcare). As antigens human IL4 (IL004, Millipore) and human IL13 (IL012, Millipore) were used. The capture antibody (human antibody capture kit, His capture kit, Fab capture kit, GE Life Sciences) was immobilized via primary amine groups (11000 RU) on a research grade CMS chip (GE Life Sciences) using standard procedures. […] The antigens human IL4 and human IL13 were used as analytes and injected for 240 sec with a dissociation time of 300 sec at a flow rate of 30 μL/min. IL4 and IL13 were used in a dilution series of 0.1 nM to 3 nM and 0.8 nM to 25 nM, respectively. Chip surfaces were regenerated with 2 min injects of the regeneration buffer provided with the capture kit. Sensorgrams were double referenced with a blank chip surface and HBS-EP buffer blanks. Recombinant human neonatal Fc-receptor (FcRn) protein was immobilized via primary amine groups (200 RU) in the sample flow cell compartment of a research grade CMS chip (GE Life Sciences) using standard procedures. The reference flow cell compartment was activated and deactivated without FcRn immobilization to generate a blank chip surface. For the analysis an assay buffer with pH 6.0 was used (150 mM NaCl, 20 mM Na-phosphate, 0.05% surfactant P20, pH6.0). The antibody was used as analyte at 800 nM dilution in assay buffer and injected over reference and sample flow cells for 240 sec with a dissociation time of 300 sec at a flow rate of 30 μL/min. Chip surfaces were regenerated with 2 min injects of HBS-EP buffer at 30 μl/min. Sensorgrams were double referenced with a the blank chip surface and HBS-EP buffer blanks. All data analysis was done using the BIAevaluation software v4.1.
A general note: Surface plasmon resonance follows binding to a sensor surface in real time, without labels.

Assay [2] deals with T1, human IL4 (IL004, Millipore). Kind of assay: SPR (Biacore), variant captured with human antibody capture kit, IL4 as analyte. On the procedure: as §1
Assay [3] has the same target. Kind of assay: SPR (Biacore), variant captured with His-capture kit, IL4 as analyte. On the procedure: as §1

B1: protein variant (8), Diabody Split CH2 tetravalent bispecific antibody (bispecific antibody, human IgG4 S228P)
chain 1: DIVLTQSPASLAVSLGQRATISCRASESVDSYGQSYMHWYQQKAGQPPKLLIYLASNLESGVPARFSGSGSRTDFTLTIDPVQAEDAATYYCQQNAEDSRTFGGGTKLEIKGGGSGGGGQVQLQQSGPELVKPGASVKISCKASGYSFTSYWIHWIKQRPGQGLEWIGMIDPSDGETRLNQRFQGRATLTVDESTSTAYMQLRSPTSEDSAVYYCTRLKEYGNYDSFYFDVWGAGTLVTVSSGGPSVFLFPPKPKDTLMISRTPEVTCVVVDVSHEDPEVKFNWYVDGVEVHN
chain 2: not shown
notes: variant (1) fused to an IgG Fc-domain
Usually Kd stands for the constant that tells how readily two partners part at equilibrium. Usually koff stands for the rate constant with which the complex falls apart. High values mean fast dissociation, low ones slow dissociation. What is called kon is the second-order rate constant of association. In turn, B1 showed a Kd in assay [1] of 0.00143 nM. In assay [2], this molecule came in with a Kd of 0.00143 nM, a koff of 0.000135 s⁻¹ and an on-rate (kon) of 9.49e+07 M⁻¹ s⁻¹.

B2: protein variant (1), Diabody-added Split CH2 (diabody split CH2, anti-IL4/anti-IL13) (bispecific antibody)
chain 1: B1 chain 1
chain 2: DIQMTQSPASLSVSVGDTITLTCHASQNIDVWLSWFQQKPGNIPKLLIYKASNLHTGVPSRFSGSGSGTGFTLTISSLQPEDIATYYCQQAHSYPFTFGGGTKLEIKGGGSGGGGEVQLKESGPGLVAPGGSLSITCTVSGFSLTDSSINWVRQPPGKGLEWLGMIWGDGRIDYADALKSRLSISKDSSKSQVFLEMTSLRTDDTATYYCARDGYFPYAMDFWGQGTSVTVSSGGGGSGGGGSAKTKPREEQYNSTYRVVSVLTVLHQDWLNGKEYKCKVSNKALPAPIEKTISKAKGQPREHHHHHH
notes: Two chains joined by the disulfide bond of the reassembled IgG1 split CH2 domain
In assay [3], B2 registered a Ka of 6.24e+10 M⁻¹, a dissociation constant Kd of 0.016 nM, a koff of 0.00117 s⁻¹ and an on-rate constant (kon) of 7.32e+07 M⁻¹ s⁻¹. In assay [1], this molecule gave a dissociation constant (Kd) of 0.016 nM.

B3: protein variant (7), Diabody Split CH2 (included) ("Splite") (bispecific antibody)
chain 1: DIVLTQSPASLAVSLGQRATISCRASESVDSYGQSYMHWYQQKAGQPPKLLIYLASNLESGVPARFSGSGSRTDFTLTIDPVQAEDAATYYCQQNAEDSRTFGGGTKLEIKGGPSVFLFPPKPKDTLMISRTPEVTCVVVDVSHEDPEVKFNWYVDGVEVHNDIQMTQSPASLSVSVGDTITLTCHASQNIDVWLSWFQQKPGNIPKLLIYKASNLHTGVPSRFSGSGSGTGFTLTISSLQPEDIATYYCQQAHSYPFTFGGGTKLEIK
chain 2: EVQLKESGPGLVAPGGSLSITCTVSGFSLTDSSINWVRQPPGKGLEWLGMIWGDGRIDYADALKSRLSISKDSSKSQVFLEMTSLRTDDTATYYCARDGYFPYAMDFWGQGTSVTVSSGGGGSGGGGSGGGGSAKTKPREEQYNSTYRVVSVLTVLHQDWLNGKEYKCKVSNKALPAPIEKTISKAKGQPREQVQLQQSGPELVKPGASVKISCKASGYSFTSYWIHWIKQRPGQGLEWIGMIDPSDGETRLNQRFQGRATLTVDESTSTAYMQLRSPTSEDSAVYYCTRLKEYGNYDSFYFDVWGAGTLVTVSSHHHHHH
notes: Splite diabody with other linkers than variant (4); also called splite diabody
In assay [3], B3 registered a Ka of 1.46e+10 M⁻¹, a Kd of 0.0685 nM, a koff of 0.000232 s⁻¹ and a kon of 3.38e+06 M⁻¹ s⁻¹. In assay [1], this molecule displayed a Kd of 0.0685 nM.

B4: protein variant (5), Diabody Split CH2 (included) ("Splite") (bispecific antibody)
chain 1: B3 chain 1
chain 2: EVQLKESGPGLVAPGGSLSITCTVSGFSLTDSSINWVRQPPGKGLEWLGMIWGDGRIDYADALKSRLSISKDSSKSQVFLEMTSLRTDDTATYYCARDGYFPYAMDFWGQGTSVTVSSGGGAKTKPREEQYNSTYRVVSVLTVLHQDWLNGKEYKCKVSNKALPAPIEKTISKAKGQPREQVQLQQSGPELVKPGASVKISCKASGYSFTSYWIHWIKQRPGQGLEWIGMIDPSDGETRLNQRFQGRATLTVDESTSTAYMQLRSPTSEDSAVYYCTRLKEYGNYDSFYFDVWGAGTLVTVSSHHHHHH
notes: as for B3
For B4, in assay [3], the Kd was determined as 0.0403 nM, the koff was 0.000165 s⁻¹ and the kon was 4.1e+06 M⁻¹ s⁻¹. The molecule also registered a Kd in assay [1] of 0.0403 nM.

B5: protein variant (4), Diabody Split CH2 (included) ("Splite") (bispecific antibody, IgG1)
chain 1: DIVLTQSPASLAVSLGQRATISCRASESVDSYGQSYMHWYQQKAGQPPKLLIYLASNLESGVPARFSGSGSRTDFTLTIDPVQAEDAATYYCQQNAEDSRTFGGGTKLEIKGGPSVFLFPPKPKDTLMISRTPEVTCVVVDVSHEDPEVKFNWYVDGVEVHNGGGGSGGGGSGGGGSDIQMTQSPASLSVSVGDTITLTCHASQNIDVWLSWFQQKPGNIPKLLIYKASNLHTGVPSRFSGSGSGTGFTLTISSLQPEDIATYYCQQAHSYPFTFGGGTKLEIK
chain 2: B3 chain 2
notes: Split IgG1 CH2 domain inserted between the variable domains; also called splite diabody
In assay [3], B5 gave a Kd of 0.0648 nM, an off-rate constant (koff) of 0.000224 s⁻¹ and an association rate constant (kon) of 3.46e+06 M⁻¹ s⁻¹. Binding in assay [1] was put at a Kd of 0.0648 nM.

B6: protein variant (9), DVD-Split CH2 tetravalent bispecific antibody (bispecific antibody, human IgG4 S228P, kappa)
chain 1: DIVLTQSPASLAVSLGQRATISCRASESVDSYGQSYMHWYQQKAGQPPKLLIYLASNLESGVPARFSGSGSRTDFTLTIDPVQAEDAATYYCQQNAEDSRTFGGGTKLEIKGGGGSGGGGSDIQMTQSPASLSVSVGDTITLTCHASQNIDVWLSWFQQKPGNIPKLLIYKASNLHTGVPSRFSGSGSGTGFTLTISSLQPEDIATYYCQQAHSYPFTFGGGTKLEIKRTVAAPSVFIFPPSDEQLKSGTASVVCLLNNFYPREAKVQWKVDNALQSGNSQESVTEQDSKDSTYSLSSTLTLSKADYEKHKVYACEVTHQGLSSPVTKSFNRGECGGPSVFLFPPKPKDTLMISRTPEVTCVVVDVSHEDPEVKFNWYVDGVEVHN
chain 2: not shown
notes: variant (2) fused to an IgG Fc-domain
In turn, B6 displayed a dissociation constant Kd in assay [1] of 0.00609 nM. In assay [2], this molecule returned an equilibrium dissociation constant (Kd) of 0.00609 nM, an off-rate constant (koff) of 0.000108 s⁻¹ and a kon of 1.77e+07 M⁻¹ s⁻¹.

B7: protein variant (10), CODV-Split CH2 tetravalent bispecific antibody (bispecific antibody, human IgG4 S228P, kappa)
chain 1: DIVLTQSPASLAVSLGQRATISCRASESVDSYGQSYMHWYQQKAGQPPKLLIYLASNLESGVPARFSGSGSRTDFTLTIDPVQAEDAATYYCQQNAEDSRTFGGGTKLEIKGQPKAAPSDIQMTQSPASLSVSVGDTITLTCHASQNIDVWLSWFQQKPGNIPKLLIYKASNLHTGVPSRFSGSGSGTGFTLTISSLQPEDIATYYCQQAHSYPFTFGGGTKLEIKTKGPSVFRTVAAPSVFIFPPSDEQLKSGTASVVCLLNNFYPREAKVQWKVDNALQSGNSQESVTEQDSKDSTYSLSSTLTLSKADYEKHKVYACEVTHQGLSSPVTKSFNRGECGGPSVFLFPPKPKDTLMISRTPEVTCVVVDVSHEDPEVKFNWYVDGVEVHN
chain 2: not shown
notes: variant (3) fused to an IgG Fc-domain
B7: the equilibrium dissociation constant (Kd) in assay [1] came to 0.000222 nM. In assay [2], this molecule returned a dissociation constant Kd of 0.000222 nM, a koff of 0.000204 s⁻¹ and a kon of 9.19e+08 M⁻¹ s⁻¹.

B8: protein variant (6), Diabody Split CH2 (included) ("Splite") (bispecific antibody)
chain 1: B5 chain 1
chain 2: B4 chain 2
notes: as for B3
On to B8, for which, in assay [3], the Ka stood at 1.14e+10 M⁻¹, the Kd is 0.0878 nM, the dissociation rate constant (koff) turned out to be 0.000261 s⁻¹ and the association rate constant (kon) was 2.97e+06 M⁻¹ s⁻¹. Further, in assay [1], binding was put at a Kd of 0.0878 nM.
